In patent publication US8022177B2, “Peptides and calcium regulation in mammalian cells” (The Board of Trustees of the University of Illinois, priority 2005, dated 2011):
Read-outs that look alike come from different tables or passages of the source.

B1: γ6 A46I: γ6 mutant, alanine 46 replaced by isoleucine (protein, UniProt Q9BXT2 1-260, looked up, variant A46I)
Voltage-dependent calcium …: MMWSNFFLQEENRRRGAAGRRRAHGQGRSGLTPEREGKVKLALLLIAVGATLAVLSVGTEFWVELNTYKANGSAVCEAAHLGLWKACTKRLWQADVPVDRDTCGPAELPGEANCTYFKFFTTGENARIFQRTTKKEVNLAAAVIAVLGLAVMALGCLCIIMVLSKGAEFLLRVGAVCFGLSGLLLLVSLEVFRHSVRALLQRVSPEPPPAPRLTYEYSWSLGCGVGAGLILLLGAGCFLLLTLPSWPWGSLCPKRGHRAT
B2: γ6 G49A: γ6 with glycine 49 mutated to alanine (protein, UniProt Q9BXT2 1-260, looked up, variant G49A)
Voltage-dependent calcium …: MMWSNFFLQEENRRRGAAGRRRAHGQGRSGLTPEREGKVKLALLLAAVAATLAVLSVGTEFWVELNTYKANGSAVCEAAHLGLWKACTKRLWQADVPVDRDTCGPAELPGEANCTYFKFFTTGENARIFQRTTKKEVNLAAAVIAVLGLAVMALGCLCIIMVLSKGAEFLLRVGAVCFGLSGLLLLVSLEVFRHSVRALLQRVSPEPPPAPRLTYEYSWSLGCGVGAGLILLLGAGCFLLLTLPSWPWGSLCPKRGHRAT
B3: γ1: wild-type calcium channel γ1 subunit (protein, UniProt Q06432 1-222, looked up)
Voltage-dependent calcium …: MSQTKMLKVRVTLFCILAGIVLAMTAVVTDHWAVLSPHMEHHNTTCEAAHFGLWRICTKRIPMDDSKTCGPITLPGEKNCSYFRHFNPGESSEIFEFTTQKEYSISAAAIAIFSLGFIILGSLCVLLSLGKKRDYLLRPASMFYAFAGLCILVSVEVMRQSVKRMIDSEDTVWIEYYYSWSFACACAAFILLFLGGLALLLFSLPRMPRNPWESCMDAEPEH

Experiments:
Cav3.1 [1] = molecular target: T1, Cav3.1 (Homo sapiens, UniProt O43497); experiment: Whole-cell patch clamp of Cav3.1 current in Cav3.1-HEK cells transfected with γ6, γ4, their first transmembrane domains or point mutants (Example 3); format: cell-based; conditions: for Normalized Current Density: relative to vector control (100.0%), Table 3.3
T1 construct: expressed in transfected cells; host or cells: HEK-293, stably transfected
Procedure: Transfection. HEK-293 cells stably transfected with the Cav3.1 α1 subunit were transiently transfected with vectors containing GFP and γ subunits cDNA when the cultures reached 50% confluency. Lipofectamine 2000 reagent (Invitrogen) was used following manufacturer's protocol.
Electrophysiology. Whole cell Ca2+ currents were recorded at room temperature using an Axon Instruments Axopatch-1D amplifier, a Digidata 1200 interface and pClamp8.0 software about 48 hours after transfection. Cell capacitance was typically around 10 pF, but ranged from 5-40 pF. Recording micropipettes were made from borosilicate glass (2-3 Mohms tip resistance), and filled with solution contained (in mM) 130 NaCl, 10 EGTA, 2 MgCl2, 1 CaCl2, 10 HEPES, 3 Tris-ATP, and 0.3 Li2GTP or 0.3 Tris-GTP. Tyrode's solution was used as the bath solution. It contained (in mM) 137 NaCl, 1 KCl, 1 MgCl2, 0.33 NaH2PO4, 2 CaCl2, 10 HEPES. Both solutions were adjusted to pH 7.4 with NaOH and 280 mOsm with sucrose.
We determined the biophysical characteristics of Cav3.1 currents in transfected HEK-293 cells and effects of the first transmembrane domain of γ4 and γ6 on these properties. Test parameters were optimized for studying Cav3.1 current. The time constant (τ) of deactivation (τdeac) was obtained by single exponential fitting of tail currents. For Cav3.1 currents, the cells were clamped at a holding potential of −100 mV, then depolarized to −20 mV for 4 msec, and repolarized to various voltages from −120 mV to −60 mV at 10 mV interval for 150 msec to elicit tail currents.
The voltage dependence of activation was measured using tail currents. For Cav3.1 currents, the cells were clamped at a holding potential equal to −100 mV, and then depolarized briefly to a conditioning potential, varying from −90 mV to +60 mV, and finally clamped at −60 mV before inactivation. Using this protocol, all tail currents are elicited at the same driving force (at −60 mV), so the current amplitude accurately reflects the number of channels opened during the different conditioning potentials.
A series of conditioning prepulses of 500 msec were used to measure voltage dependence of inactivation in our experiments. Channels initially open and then reach steady-state inactivation during the 500 msec long prepulses. The membrane potential is stepped to a fixed test potential of −20 mV, where maximal peak current is elicited. Currents elicited at each test potential reflect how many channels are not in the inactivated state after a steady-state inactivation; that is, how many channels are available to open. The conditioning prepulse potentials were changed from −120 mV to 50 mV, and the test potential is fixed at −20 mV.
Data collection and analysis. To probe the structural features necessary for the function of γ subunits, we are using HEK-293 cell line stably transfected with Cav3.1 α1 subunit. These cells are then transiently transfected with vectors containing various chimeric, truncated or mutant gamma subunits. […] There is inherent variation in calcium current density in the HEK-Cav3.1 stable cell line likely due to differences in the batch used, passenger number, extent of cellular confluence, or for other unknown reasons. The averaged current density of each test group of cells was normalized to the mean current density of a parallel control group of cells plated from the same batch of cells and analyzed on the same day. A minimum of 5 cells (typically 7 to 10) from each group was used to calculate the mean behavior of test and control cells from each days recording. At least two independent transfections were performed for each test condition. Overall, averages were obtained from 21 control groups of cells that had been transfected with empty vector over several months. The data are pooled together to reduce the variance. […] The current density of the control cells over many months justified the pooling of data recorded from different batches of cells transfected with mutated γ subunits. […]

Cav3.1 [2] = molecular target: T1, Cav3.1; experiment: Whole-cell patch clamp of Cav3.1 current in Cav3.1/HEK cells transfected with chimeras, truncations and point mutants (Example 6); format: cell-based; conditions: FIG. 38, FIG. 41
Procedure: Transfection. HEK-293 cells stably transfected with either Cav3.1 or Cav3.2 were transiently transfected, at 50% confluency, with a bicistronic vector encoding both GFP and γ subunit cDNA's using Lipofectamine 2000 reagent (Invitrogen, Carlsbad, Calif.) as per the manufacturer's recommendations. Cells were visualized using an Nikon inverted microscope with an FITC filter.
Electrophysiology. Whole cell Ca^2+ currents were recorded using an Axon Instruments Axopatch-1D amplifier and Clampex 8.0 software. Pipettes were made from boroscillicate glass and had typical resistances of 2-4 Mohms. The pipette solution contained (in mM) 130 NaCl, 10 EGTA, 2 or 5 MgCl2, 1 CaCl2, 10 HEPES, 3 Tris-ATP, and 0.3 Li2GTP. Two different bath solutions were used. The first, used for experiments with γ subunit chimeras, contained (in mM) 130 NaCl, 1 MgCl2, 2 CaCl2, 10 glucose, 10 HEPES, and 0.03 TTX. The second, used for experiments with γ subunit containg point mutations, contained (in mM) 137 NaCl, 1 KCl, 1 MgCl2, 0.33 NaH2PO4, 2 CaCl2, 10 HEPES. All solutions were adjusted to pH 7.4 with NaOH and 280 mOsm with sucrose. No Cl^− currents were evident in any HEK-293 cells line, stably transfected or not, and no attempt was made to eliminate Cl^− currents from data records.
All electrophysiological data are from current records in which voltage offset was adjusted, pipette capacitance and whole cell capacitance were compensated and series resistance was compensated to >80%. Currents were filtered at 10 kHz and recorded at 40 kHz. In some cases, current records were off-line filtered at 1K. Current voltage relationships were recorded using an on-line P/−4 subtraction procedure to eliminate linear capacitative and leakage currents. Only recordings with less than 50 pA leakage current were used.
Several different protocols were used to determine the biophysical characteristics of currents in HEK-293 cells. The voltage dependence of activation was determined using “tail” currents. Cells were depolarized from a holding potential of −100 mV to test potentials ranging from −90 mV to +60 mV. Pulse durations varied and corresponded to the time to peak current measured at the corresponding test potentials. Following the conditioning pulse cells were re-polarized to −60 mV and the amplitude of the resulting “tail” current measured. The voltage dependence of inactivation was measured by depolarizing the cells to voltages ranging from −120 mV to 50 mV for 500 ms to inactivate the Ca^2+ channels. After this conditioning step the membrane was returned to the holding potential (−100 mV) for 3 ms and then depolarized a second time to +20 mV for 150 ms during which time the peak current was measured. Time constants for inactivation were measured by fitting a single exponential equation to the decay phase of currents elicited by voltage steps from −50 to +30 mV from a holding potential of −100 mV. Time constants for deactivation were measured by fitting either a single or a double exponential to the decay phase of tail currents.
To account for the inherent variation in calcium current density in the HEK-Cav3.1 stable cell line the averaged current density of each test group of cells was normalized to the mean current density of a control group of cells. A minimum of 5 cells (typically 7 to 10) from each group was used to calculate the mean current densities of test and control cells. At least two independent transfections were performed for each test condition. […]

T1 sequence (O43497 whole entry, the tested form may be a part): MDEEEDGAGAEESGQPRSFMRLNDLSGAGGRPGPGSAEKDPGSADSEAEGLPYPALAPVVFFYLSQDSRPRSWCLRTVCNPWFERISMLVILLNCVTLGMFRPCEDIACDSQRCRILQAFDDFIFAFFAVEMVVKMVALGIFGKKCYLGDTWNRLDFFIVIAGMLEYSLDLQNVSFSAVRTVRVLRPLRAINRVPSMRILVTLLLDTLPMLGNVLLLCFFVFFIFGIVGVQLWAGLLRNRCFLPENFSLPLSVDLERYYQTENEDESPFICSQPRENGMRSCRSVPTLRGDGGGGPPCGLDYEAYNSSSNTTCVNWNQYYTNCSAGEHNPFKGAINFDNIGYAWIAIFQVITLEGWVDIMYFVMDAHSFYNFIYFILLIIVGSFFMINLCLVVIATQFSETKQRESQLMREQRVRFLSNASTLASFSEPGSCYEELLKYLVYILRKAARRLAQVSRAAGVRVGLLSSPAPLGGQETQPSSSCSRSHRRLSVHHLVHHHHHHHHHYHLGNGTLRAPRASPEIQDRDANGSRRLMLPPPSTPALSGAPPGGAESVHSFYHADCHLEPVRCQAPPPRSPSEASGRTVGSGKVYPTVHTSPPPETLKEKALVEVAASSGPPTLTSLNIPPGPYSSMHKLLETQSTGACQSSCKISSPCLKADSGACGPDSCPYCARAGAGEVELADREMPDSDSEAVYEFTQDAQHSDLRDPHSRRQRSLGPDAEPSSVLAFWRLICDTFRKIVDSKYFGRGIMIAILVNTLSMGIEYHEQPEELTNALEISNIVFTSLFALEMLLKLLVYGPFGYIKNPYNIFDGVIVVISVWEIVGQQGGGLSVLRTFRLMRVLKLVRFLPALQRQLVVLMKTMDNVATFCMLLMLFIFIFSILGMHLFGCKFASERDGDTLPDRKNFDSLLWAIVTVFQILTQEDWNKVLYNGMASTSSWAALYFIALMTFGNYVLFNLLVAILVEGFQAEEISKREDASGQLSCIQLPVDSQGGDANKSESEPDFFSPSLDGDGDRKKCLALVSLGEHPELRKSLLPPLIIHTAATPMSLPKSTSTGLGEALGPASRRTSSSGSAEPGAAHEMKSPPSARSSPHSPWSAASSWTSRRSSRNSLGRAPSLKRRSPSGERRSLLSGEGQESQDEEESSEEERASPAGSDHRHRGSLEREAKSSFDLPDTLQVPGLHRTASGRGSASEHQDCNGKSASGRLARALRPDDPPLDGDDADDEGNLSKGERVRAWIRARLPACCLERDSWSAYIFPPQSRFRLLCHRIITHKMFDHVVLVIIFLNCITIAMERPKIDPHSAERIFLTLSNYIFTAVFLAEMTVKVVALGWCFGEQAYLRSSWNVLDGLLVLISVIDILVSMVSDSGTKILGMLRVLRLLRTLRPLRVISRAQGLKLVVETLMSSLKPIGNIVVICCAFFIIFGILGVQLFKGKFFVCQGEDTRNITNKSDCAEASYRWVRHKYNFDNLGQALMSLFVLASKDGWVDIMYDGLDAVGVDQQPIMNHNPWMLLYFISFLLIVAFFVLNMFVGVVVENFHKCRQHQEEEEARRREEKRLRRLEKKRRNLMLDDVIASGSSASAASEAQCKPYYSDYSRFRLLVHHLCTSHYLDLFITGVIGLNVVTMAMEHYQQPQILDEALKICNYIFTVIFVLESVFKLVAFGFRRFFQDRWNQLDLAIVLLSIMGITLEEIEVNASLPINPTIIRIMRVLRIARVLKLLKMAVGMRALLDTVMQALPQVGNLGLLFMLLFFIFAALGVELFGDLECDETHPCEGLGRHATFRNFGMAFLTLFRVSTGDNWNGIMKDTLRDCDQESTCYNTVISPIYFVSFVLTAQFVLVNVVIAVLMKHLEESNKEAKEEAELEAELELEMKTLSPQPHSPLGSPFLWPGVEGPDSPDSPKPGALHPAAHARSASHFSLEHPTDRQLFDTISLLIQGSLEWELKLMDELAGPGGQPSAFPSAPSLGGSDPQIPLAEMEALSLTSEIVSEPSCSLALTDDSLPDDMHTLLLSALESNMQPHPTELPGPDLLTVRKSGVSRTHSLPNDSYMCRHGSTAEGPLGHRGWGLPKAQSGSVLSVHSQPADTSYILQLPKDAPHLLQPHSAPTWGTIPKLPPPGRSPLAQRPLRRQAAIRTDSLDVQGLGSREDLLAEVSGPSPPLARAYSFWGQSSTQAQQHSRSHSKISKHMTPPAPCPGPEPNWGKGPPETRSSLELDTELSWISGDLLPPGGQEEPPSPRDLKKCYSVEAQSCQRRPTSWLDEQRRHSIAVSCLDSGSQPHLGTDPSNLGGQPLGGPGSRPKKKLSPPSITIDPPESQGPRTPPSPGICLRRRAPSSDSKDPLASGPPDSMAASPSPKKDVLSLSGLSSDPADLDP

Molecule	Inhibitory function on Cav3.1 calcium current (Cav3.1 [1])	Inhibitory function on Cav3.1 calcium current (Cav3.1 [1]; listed as A461)	Effect on Cav3.1 calcium current density (Cav3.1 [2])	Normalized Current Density (Cav3.1 [1])	Normalized Current Density (Cav3.1 [1]; listed as G49A)	Normalized current density, % of control (Cav3.1 [2]; Cav3.1/HEK cells)
B1	did not inhibit calcium current	no longer inhibitory	also altered Cav3.1 current density	–	–	–
B2	–	–	–	67.6%	67.6%±5.9%	67.6%±5.9%
B3	no effect on Cav3.1 calcium current	–	does not alter calcium current density	–	–	–
